Experimental data taken from the supplement of paper PMC7877785.
± gives the uncertainty stated by the source.

Assay: self-splicing fitness, log relative to wild type (ln ratio); higher = more splicing; Tetrahymena group I intron in knt gene, E. coli kanamycin selection, DiMSum; sequences stand for … in CUCUCU…GGAGGGAAAAGUUAUCAGGCAUGCACCUGGUAGCUAGUCUUUAAACCAAUAGAUUGCAUCGGUUUAAAAGGCAAGACCGUCAAAUUGCGGGAAAGGGGUCAACAGCCGUUCAGUACCAAGUCUCAGGGGAAACUUUGAGAUGGCCUUGCAAAGGGUAUGGUAAUAAGCUGACGGACAUGGUCCUAACCACGCAGCCAAGUCCUAAGUCAACAGAUCUUCUGUUGAUAUGGAUGCAGUUCACAGACUAAAUGUCGGUCGGGGAAGAUGUAUUCUUCUCAUAAGAUAUAGUCGGACCUCUCCUUAAUGGGAGCUAGCGGAUGAAGUGAUGCAACACUGGAGCCGCUGGGAACUAAUUUGUAUGCGAAAGUAUAUUGAUUAGUUUUGGAGUACUCGUGGUCG
Summary of the method: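 DiMSum derived fitness as the error-weighted combination of fold changes across replicates, kanamycin versus no kanamycin, normalised to wild type. E. coli BL21(DE3) held the library, which randomised all eight P1ex-region intron nucleotides within the knt kanamycin-resistance gene on pET-22b(+). Six replicate transformations grew overnight at 37°C or 30°C on LB agar with or without 25 μg/mL kanamycin, also containing 100 μg/mL carbenicillin, 50 μM IPTG and 0.2% rhamnose, and pooled colonies were amplicon-sequenced on an Illumina HiSeq 2500.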

Sequence | self-splicing fitness (ln) (37 °C) | self-splicing fitness (ln) (30 °C)
UCAUAGCAAUAUUACGAUCC | -1.7 ± 0.41 | –
GGUUAGCAAUAUUACGGGAU | -1.4 ± 0.24 | -3.13 ± 0.26
AACUAGCAAUAUUACGGGAA | -1.13 ± 0.084 | -1.5 ± 0.074
UGUCAGCAAUAUUACGGCCU | 0.483 ± 0.3 | -0.452 ± 0.23
AGUUAGCAAUAUUACGGAGG | -2.13 ± 0.41 | -2.91 ± 0.3
GUUUAGCAAUAUUACGGCGU | -0.0237 ± 0.12 | -0.507 ± 0.094
UGAUAGCAAUAUUACGACGC | -3.55 ± 0.29 | –
AUGUAGCAAUAUUACGUACA | -0.328 ± 0.16 | -0.425 ± 0.14
CCGAAGCAAUAUUACGUUCC | -2.81 ± 0.37 | -3.94 ± 0.37
AUCUAGCAAUAUUACGCCUC | -1.33 ± 0.34 | -1.62 ± 0.19
CGCCAGCAAUAUUACGGCGC | -2.23 ± 0.22 | -3 ± 0.17
CUUUAGCAAUAUUACGCGUA | -3.28 ± 0.35 | -3.14 ± 0.26
AUGGAGCAAUAUUACGUCAG | -1.41 ± 0.44 | -2.47 ± 0.32
UGUAAGCAAUAUUACGAUAG | -1.87 ± 0.29 | -1.44 ± 0.25
ACUCAGCAAUAUUACGCUAU | -0.569 ± 0.07 | -1.9 ± 0.061
GGAAAGCAAUAUUACGAGCA | -0.54 ± 0.083 | -1.01 ± 0.078
UUCAAGCAAUAUUACGGAGG | -2.58 ± 0.19 | -4.04 ± 0.27
UUUAAGCAAUAUUACGCGCC | -1.4 ± 0.26 | -1.12 ± 0.18
AGUUAGCAAUAUUACGUGCG | -0.00484 ± 0.093 | -0.586 ± 0.082
CCUCAGCAAUAUUACGAUAA | -3.35 ± 0.32 | -2.82 ± 0.16
AACAAGCAAUAUUACGUAGG | -1.57 ± 0.1 | -2.76 ± 0.086
UGAGAGCAAUAUUACGAGAA | -1.39 ± 0.43 | –
AGUGAGCAAUAUUACGCAAU | -0.698 ± 0.43 | -2.23 ± 0.4
GUACAGCAAUAUUACGCAAA | -2.48 ± 0.28 | -0.875 ± 0.14
GGAAAGCAAUAUUACGAAUU | -1.4 ± 0.12 | -1.96 ± 0.16
AUGAAGCAAUAUUACGGAGC | -1.72 ± 0.2 | -3.69 ± 0.39

Sequence | self-splicing fitness (ln) (37 °C) | self-splicing fitness (ln) (30 °C)
UCUUAGCAAUAUUACGACUU | -2.47 ± 0.31 | -3.52 ± 0.31
GCCCAGCAAUAUUACGCAGA | -3.47 ± 0.42 | -3.37 ± 0.28
ACGAAGCAAUAUUACGGAUG | -1.44 ± 0.11 | -2.82 ± 0.13
UAGGAGCAAUAUUACGGCGG | -0.013 ± 0.26 | -2.34 ± 0.24
GUAGAGCAAUAUUACGAAGU | -0.951 ± 0.17 | -2.46 ± 0.23
UCGCAGCAAUAUUACGCUUG | -1.83 ± 0.15 | -1.93 ± 0.14
CACGAGCAAUAUUACGCCGU | -2.26 ± 0.18 | -3 ± 0.21
GUCUAGCAAUAUUACGCCUU | 0.266 ± 0.15 | -0.385 ± 0.16
CAACAGCAAUAUUACGGACC | -0.864 ± 0.23 | -2.98 ± 0.27
ACCAAGCAAUAUUACGUCCU | 0.0592 ± 0.075 | -0.777 ± 0.058
GAUCAGCAAUAUUACGAUAG | 0.475 ± 0.093 | -0.506 ± 0.067
AUCGAGCAAUAUUACGGUUC | – | -2.93 ± 0.24
UACAAGCAAUAUUACGUAGC | -2.09 ± 0.2 | -3.5 ± 0.18
CGGGAGCAAUAUUACGAGCU | -1.89 ± 0.38 | -3.18 ± 0.41
GCGCAGCAAUAUUACGGAUC | 0.419 ± 0.083 | -0.0635 ± 0.068
AGACAGCAAUAUUACGCCAU | -1.78 ± 0.17 | -3.25 ± 0.26
CUGAAGCAAUAUUACGUAGG | -2.36 ± 0.25 | -3.21 ± 0.18
CGCCAGCAAUAUUACGAUGU | -1.25 ± 0.1 | -2.9 ± 0.12
AGAUAGCAAUAUUACGCAUG | -0.884 ± 0.14 | -1.58 ± 0.14
CGUAAGCAAUAUUACGUUGC | -1.81 ± 0.29 | -2.73 ± 0.22
GUAAAGCAAUAUUACGAAUC | -0.902 ± 0.14 | -1.71 ± 0.14
AUGGAGCAAUAUUACGUUUG | -2.58 ± 0.36 | -3.38 ± 0.29
CAUGAGCAAUAUUACGCCGU | -3.36 ± 0.26 | -3.93 ± 0.37
CUUGAGCAAUAUUACGGUAC | -2.16 ± 0.42 | -2.24 ± 0.2
GUGAAGCAAUAUUACGGCAU | 0.334 ± 0.089 | 0.0954 ± 0.083
GGACAGCAAUAUUACGCUUC | – | -1.74 ± 0.19

Sequence | self-splicing fitness (ln) (37 °C) | self-splicing fitness (ln) (30 °C)
UUCAAGCAAUAUUACGCUCG | -2.15 ± 0.2 | -3.13 ± 0.33
AUAAAGCAAUAUUACGAAGG | -1.41 ± 0.12 | -2.1 ± 0.081
UUUGAGCAAUAUUACGAAGC | -1.64 ± 0.33 | -3.58 ± 0.42
UCUGAGCAAUAUUACGGUCA | -1.7 ± 0.29 | -2.5 ± 0.29
UACUAGCAAUAUUACGUGGG | -2.46 ± 0.18 | -3.32 ± 0.19
UGGUAGCAAUAUUACGGCUG | -0.886 ± 0.26 | -1.99 ± 0.15
GCGUAGCAAUAUUACGAUUU | -0.282 ± 0.09 | 0.253 ± 0.088
ACCCAGCAAUAUUACGGCAA | -0.263 ± 0.068 | -0.219 ± 0.056
GAGGAGCAAUAUUACGAAAC | -1.87 ± 0.33 | -2.22 ± 0.34
GUUCAGCAAUAUUACGGUAG | -0.531 ± 0.093 | -2.08 ± 0.078
GCCCAGCAAUAUUACGAGCA | -0.143 ± 0.091 | -1.49 ± 0.11
UAGCAGCAAUAUUACGGUCC | -2.03 ± 0.24 | -3.66 ± 0.26
GAGUAGCAAUAUUACGGAUG | – | -1.42 ± 0.17
AGGGAGCAAUAUUACGGUAA | -2.46 ± 0.44 | –
AGGUAGCAAUAUUACGAGUC | -2.49 ± 0.043 | -3.864 ± 0.037
CUUAAGCAAUAUUACGCGUU | -3.85 ± 0.25 | -4.44 ± 0.23
GAUUAGCAAUAUUACGACUG | -0.313 ± 0.14 | -0.181 ± 0.12
UAAAAGCAAUAUUACGGGCU | -2 ± 0.29 | -2.79 ± 0.23
GCACAGCAAUAUUACGGGUG | -2.62 ± 0.16 | -4.37 ± 0.23
CCGGAGCAAUAUUACGGGGU | -2.93 ± 0.26 | -3.59 ± 0.2
CUGUAGCAAUAUUACGUGGC | 0.0373 ± 0.2 | –
UAAGAGCAAUAUUACGUCAC | -2.04 ± 0.34 | -2.67 ± 0.3
CGGAAGCAAUAUUACGUAUC | -2.81 ± 0.22 | -3.82 ± 0.21
GUACAGCAAUAUUACGUUCC | -3.48 ± 0.42 | -3.44 ± 0.15
AUGCAGCAAUAUUACGCUCG | -0.774 ± 0.13 | -1.89 ± 0.11
